Measurements taken from patent publication US20190300590A1 (PROTAGONIST THERAPEUTICS, published 2019).
*1 amine or outer side, *2 acyl side, *3 side chain or, on linkers, in order; H or OH if unused. Bridges are numbered along the chain shown (N, C = ends). Primed or numbered codes have the meaning given here. [ ]: non-standard residue; d: D form. The star is where a group is joined. Phe(4-OMe)(3) = O-methyl-L-tyrosine (4-methoxy-L-phenylalanine), COc1ccc(C[C@H](N[*:1])C(=O)[*:2])cc1; Phe(4-OMe) = 4-methoxy-L-phenylalanine (O-methyl-L-tyrosine), COc1ccc(C[C@H](N[*:1])C(=O)[*:2])cc1; Phe(4-OMe)(4) = O-methyl-L-tyrosine, COc1ccc(C[C@H](N[*:1])C(=O)[*:2])cc1; Trp(6-Cl) = N[C@@H](Cc1c[nH]c2cc(Cl)ccc12)C(=O)O; 2Nal = N[C@@H](Cc1ccc2ccccc2c1)C(=O)O; AEF = NCCOc1ccc(C[C@H](N)C(=O)O)cc1; αMeL = CC(C)C[C@](C)(N)C(=O)O; Pen = CC(C)(S)[C@H](N)C(=O)O; Suc = O=C(CCC(=O)[*:2])[*:1]; αMeK = C[C@](N)(CCCCN)C(=O)O; Isovaleryl = CC(C)CC(=O)*; Abu = CC[C@H](N)C(=O)O

T1: IL23R_huFC (human, UniProt Q5VWK5 24-353)
T1 sequence (looked up): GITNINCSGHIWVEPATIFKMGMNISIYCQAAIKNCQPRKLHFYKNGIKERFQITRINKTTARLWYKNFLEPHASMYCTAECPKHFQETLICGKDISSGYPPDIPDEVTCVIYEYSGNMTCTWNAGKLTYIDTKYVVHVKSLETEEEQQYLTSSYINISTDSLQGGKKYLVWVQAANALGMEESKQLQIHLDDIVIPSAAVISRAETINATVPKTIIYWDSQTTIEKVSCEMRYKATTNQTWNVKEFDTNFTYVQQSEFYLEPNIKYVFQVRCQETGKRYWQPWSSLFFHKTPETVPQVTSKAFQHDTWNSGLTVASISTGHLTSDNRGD

T2: IL-23R on DB cells (human, UniProt Q5VWK5 24-629)
T2 sequence (looked up): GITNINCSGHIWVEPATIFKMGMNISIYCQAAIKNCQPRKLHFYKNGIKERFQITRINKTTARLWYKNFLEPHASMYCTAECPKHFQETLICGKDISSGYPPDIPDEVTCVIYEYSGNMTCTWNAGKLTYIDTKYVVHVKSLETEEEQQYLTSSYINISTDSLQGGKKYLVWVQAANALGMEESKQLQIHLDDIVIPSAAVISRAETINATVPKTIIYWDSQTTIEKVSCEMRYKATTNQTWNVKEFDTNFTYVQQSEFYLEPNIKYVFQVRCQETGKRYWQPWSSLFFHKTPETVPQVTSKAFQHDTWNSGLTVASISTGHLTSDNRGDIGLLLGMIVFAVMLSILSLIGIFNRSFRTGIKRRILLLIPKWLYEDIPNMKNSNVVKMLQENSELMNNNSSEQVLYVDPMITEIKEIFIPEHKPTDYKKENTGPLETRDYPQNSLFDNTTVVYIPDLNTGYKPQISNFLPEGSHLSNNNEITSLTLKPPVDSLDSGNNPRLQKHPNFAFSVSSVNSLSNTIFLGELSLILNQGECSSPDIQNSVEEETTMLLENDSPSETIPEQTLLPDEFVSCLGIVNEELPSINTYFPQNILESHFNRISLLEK

T3: IL-23R on human cells (IL-23R-expressing DB cells; human NK cells) (human, UniProt Q5VWK5 24-629)
T3 sequence (looked up): T2 sequence (looked up)

T4: IL23R_huFC (human, UniProt Q5VWK5 24-353)
T4 sequence (looked up): T1 sequence (looked up)

B1: Ac-Cyclo-[[Abu]-QTWQC]-[Phe(4-OMe)]-[2-Nal][α-MeLys]-[Lys(Ac)]-NAE-NH2 (peptide)
peptide: Ac-[Abu]QTWQC[Phe(4-OMe)(3)][2Nal][αMeK]K(Ac)NAE-NH2
modifications: thioether 1-6
B2: Ac-(D)Lys-[Cyclo-[[Abu]-QTWQC]]-[Phe(4-OMe)]-[2-Nal]-[α-MeLeu]-ENG-NH2 (peptide)
peptide: Ac-[dK][Abu]QTWQC[Phe(4-OMe)(4)][2Nal][αMeL]ENG-NH2
modifications: thioether 2-7
B3: Ac-[2-Nal]-Cyclo-[[Abu]-QTWQC]-[Phe[4-(2-aminoethoxy)]]-[2-Nal]-[α-MeLys]-ENN-NH2 (peptide)
peptide: Ac-[2Nal][Abu]QTWQC[AEF][2Nal][αMeK]ENN-NH2
modifications: thioether 2-7
B4: Ac-Cyclo-[[Abu]-QTWQC]-[Phe(4-OMe)]-[2-Nal][α-MeLys]-[Lys(Ac)]-NA-NH2 (peptide)
peptide: Ac-[Abu]QTWQC[Phe(4-OMe)(3)][2Nal][αMeK]K(Ac)NA-NH2
modifications: thioether 1-6
B5: Ac-Cyclo-[[Abu]-QTWQC]-[Phe[4-(2-aminoethoxy)]]-[2-Nal][α-MeLys]-DNG-NH2 (peptide)
peptide: Ac-[Abu]QTWQC[AEF][2Nal][αMeK]DNG-NH2
modifications: thioether 1-6
B6: Ac-[Pen]-STWQ-[Pen]-[Phe[4-(2-aminoethoxy)]-[2-Nal]-[α-MeLys]-ENG-NH2 (peptide)
peptide: Ac-[Pen]STWQ[Pen][AEF][2Nal][αMeK]ENG-NH2
modifications: disulfide 1-6 (inferred)
B7: Ac-[Pen]-QTWQ-[Pen]-[Phe[4-(2-acetylaminoethoxy)]-[2-Nal]-[α-MeLeu]-[Lys(Ac)]-NN-NH2 (peptide)
peptide: XQTWQXFXLKNN
modifications: Ac; Pen-Pen disulfide; Phe[4-(2-acetylaminoethoxy)]; 2-Nal; α-MeLeu; Lys(Ac); NH2
B8: Ac-[Pen]-QTWQ-[Pen]-[Phe[4-(2-acetylaminoethoxy)]-[2-Nal]-[α-MeLys(Ac)]-ENA-NH2 (peptide)
peptide: XQTWQXFXKENA
modifications: Ac; Pen-Pen disulfide; Phe[4-(2-acetylaminoethoxy)]; 2-Nal; α-MeLys(Ac); NH2
B9: Ac-[Pen]-QTWQ-[Pen]-[Phe[4-(2-acetylaminoethoxy)]-[2-Nal]-[α-MeLeu]-QNN-NH2 (peptide)
peptide: XQTWQXFXLQNN
modifications: Ac; Pen-Pen disulfide; Phe[4-(2-acetylaminoethoxy)]; 2-Nal; α-MeLeu; NH2
B10: Ac-[Pen]-TTWQ-[Pen]-[Phe[4-(2-aminoethoxy)]-[2-Nal]-[α-MeLys]-ENG-NH2 (peptide)
peptide: Ac-[Pen]TTWQ[Pen][AEF][2Nal][αMeK]ENG-NH2
modifications: disulfide 1-6 (inferred)
B11: Ac-Cyclo-[[Abu]-QT-[6-chloroTrp]-QC]-[Phe[4-(2-aminoethoxy)]]-[2-Nal]-[α-MeLys]-ENG-NH2 (peptide)
peptide: Ac-[Abu]QT[Trp(6-Cl)]QC[AEF][2Nal][αMeK]ENG-NH2
modifications: thioether 1-6
B12: Ac-Cyclo-[[Abu]-QTWQC]-[Phe(4-OMe)]-[2-Nal][α-MeLys]-[Lys(Ac)]-NS-NH2 (peptide)
peptide: Ac-[Abu]QTWQC[Phe(4-OMe)(3)][2Nal][αMeK]K(Ac)NS-NH2
modifications: thioether 1-6
B13: Ac-Cyclo-[[Abu]-QTWQC]-[Phe(4-OMe)]-[2-Nal]-[α-MeOrn]-[Lys(Ac)]-NG-NH2 (peptide)
peptide: XQTWQCFXXKNG
modifications: as bracketed in name; thioether cyclo
B14: Ac-Cyclo-[[Abu]-QTWQC]-[Phe(4-OMe)]-[2-Nal][α-MeLys]-[Lys(Ac)]-NG-NH2 (peptide)
peptide: Ac-[Abu]QTWQC[Phe(4-OMe)(3)][2Nal][αMeK]K(Ac)NG-NH2
modifications: thioether 1-6
B15: Ac-Cyclo-[[Abu]-QTWQC]-[Phe[4-(2-aminoethoxy)]]-[2-Nal]-[α-MeLys]-[Lys(isovaleric acid)]-NG-NH2 (peptide)
peptide: Ac-[Abu]QTWQC[AEF][2Nal][αMeK]K(Isovaleryl)NG-NH2
modifications: thioether 1-6
B16: Ac-Cyclo-[[Abu]-QTWQC]-[Phe(4-OMe)]-W-[α-MeLys]-[Lys(Ac)]-NG-NH2 (peptide)
peptide: Ac-[Abu]QTWQC[Phe(4-OMe)]W[αMeK]K(Ac)NG-NH2
modifications: thioether 1-6
B17: Ac-Cyclo-[[Abu]-QTWQC]-[Phe[4-(2-aminoethoxy)]]-[2-Nal]-[α-MeLys]-[Lys(succinic acid)]-NG-NH2 (peptide)
peptide: Ac-[Abu]QTWQC[AEF][2Nal][αMeK]K(Suc)NG-NH2
modifications: thioether 1-6

The binders below were run against T1, IL23R_huFC (assay: human ELISA vs IL-23).

| Binder | IC50 [nM] |
| --- | --- |
| B1 | < 10 |
| B2 | < 10 |
| B3 | < 10 |
| B4 | < 10 |
| B5 | < 10 |

What follows are binders tested against T2, IL-23R on DB cells (assay: cell-based or functional assay).

| Binder | pStat3 HTRF IC50 [nM] |
| --- | --- |
| B6 | < 10 |
| B7 | < 10 |
| B8 | < 10 |
| B9 | < 10 |
| B10 | < 10 |

The binders below were run against T3, IL-23R on human cells … (assay: cell-based or functional assay).

| Binder | pStat3 HTRF IC50 [nM] |
| --- | --- |
| B1 | < 10 |
| B2 | < 10 |
| B3 | < 10 |
| B11 | < 10 |
| B4 | < 10 |
| B5 | < 10 |
| B12 | < 10 |
| B13 | < 10 |

Each binder was assayed against Rat IL-23R_huFC (rat) (assay: rat ELISA vs IL-23).

| Binder | IC50 [nM] |
| --- | --- |
| B14 | 10 to 25 |
| B15 | 10 to 25 |
| B16 | 10 to 25 |
| B17 | 10 to 25 |
| B1 | 10 to 25 |
| B2 | 10 to 25 |
| B3 | 10 to 25 |
| B11 | 10 to 25 |
| B4 | 10 to 25 |
| B5 | 10 to 25 |
| B12 | 10 to 25 |
| B13 | 10 to 25 |

Biological target: T1, IL23R_huFC
Test: human ELISA vs IL-23
Remark: another data set of the same source

| Binder | IC50 [nM] |
| --- | --- |
| B16 | 10 to 25 |
| B11 | 10 to 25 |
| B12 | 10 to 25 |
| B13 | 10 to 25 |

These binders were tested against T4, IL23R_huFC (assay: IL23-IL23R competitive binding ELISA).

| Binder | IC50 [nM] |
| --- | --- |
| B6 | 10 to 25 |
| B7 | < 10 |
| B8 | 10 to 25 |
| B9 | < 10 |
| B10 | 10 to 25 |
